Laboratory results published in patent US20120315277A1, “Compositions and Methods for the Therapy and Diagnosis of Influenza” (priority 2011, published 2012).
Where a chain is given by its changes, count along the chain named. Values joined by “and” are separate entries in the source; they are usually repeats but may differ in a detail not shown here. Equal entries are not always repeated. Where two headings read alike, the source gives them in different places.

T1: M2 protein of influenza A/Fort Worth/1/50 (H1N1), expressed on 293 cells (influenza A virus A/Fort Worth/1/50 …)
T1 chain: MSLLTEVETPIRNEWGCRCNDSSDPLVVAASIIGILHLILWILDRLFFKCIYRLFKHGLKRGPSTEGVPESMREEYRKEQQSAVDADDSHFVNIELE

B1: 8I10 (antibody, V domains shown)
VH: QVQLQESGPGLVKPSETLSLTCTVSGSSISNYYWSWIRQSPGKGLEWIGFIYYGGNTKYNPSLKSRVTISQDTSKSQVSLTMSSVTAAESAVYFCARASCSGGYCILDYWGQGTLVTVS
VL: DIQMTQSPSSLSASVGDRVTITCRASQNIYKYLNWYQQRPGKAPKGLISAASGLQSGVPSRFSGSGSGTDFTLTITSLQPEDFATYYCQQSYSPPLTFGGGTRVEIK
B2: 21B15 (antibody, V domains shown)
VH: B1 VH
VL: B1 VL with M4V, E105D
B3: 23K12 (antibody, V domains shown)
VH: EVQLVESGGGLVQPGGSLRISCAASGFTVSSNYMSWVRQAPGKGLEWVSVIYSGGSTYYADSVKGRFSFSRDNSKNTVFLQMNSLRAEDTAVYYCARCLSRMRGYGLDVWGQGTTVTVS
VL: DIQMTQSPSSLSASVGDRVTITCRTSQSISSYLNWYQQKPGKAPKLLIYAASSLQSGVPSRFSGSGSGTDFTLTISGLQPEDFATYYCQQSYSMPAFGQGTKLEIK

How the values were obtained:
H5N1 (VN1203/04) [1] = tested on: H5N1 (VN1203/04); set-up: key: +++: severe; ++: moderate; +: mild; ±: scant; −: not observed; settings: mouse, in vivo
H5N1 (VN1203/04) [2] = tested on: H5N1 (VN1203/04); set-up: key: +++: many; ++: moderate; +: few; ±: rare; −: negative; settings: mouse, in vivo
H5N1 (VN1203/04) [3] = tested on: H5N1 (VN1203/04); set-up: key to Liver: viral antigens: +++: many; ++: moderate; +: few; ±: rare; −: negative; key to Liver: pathological changes / Lung: pathological changes / Brain: pathological changes: +++: severe; ++: moderate; +: mild; ±: scant; −: not observed; settings: mouse, in vivo
[4] = tested on: H5N1 (A/Vietnam/1203/04, VN1203); set-up: species or system mouse (balb/c); settings: mouse, in vivo
H1N1 (A/NWS/33) = experiment: H1N1 challenge V at 2 or 4 LD50 (Example 17); format: in vivo, mouse (balb/c); settings: antibody 20 mg/kg, oseltamivir 10 mg/kg bid
H5N1 (VN1203/04) [5] = settings: mouse, in vivo
[6] = tested on: H5N1 (A/Vietnam/1203/04, VN1203); set-up: species or system mouse (balb/c); settings: mouse, in vivo; remark: listed apart in the source
H1N1 (A/PR/8/34) = experiment: H1N1 challenge VI at 5LD50 (Example 18); format: in vivo, mouse (balb/c); settings: 5MLD50; antibody 20 mg/kg days 1, 3, 5; oseltamivir 10 mg/kg four hours post-infection
[7] = tested on: H5N1 (A/Vietnam/1203/04, VN1203); set-up: species or system mouse (balb/c); settings: mouse, in vivo; remark: listed apart in the source
[8] = tested on: H1N1 (A/Solomon Islands/06); experiment: H1N1 challenge IV at 10LD50 (Example 16); format: in vivo, mouse (balb/c); settings: 10MLD50; antibody on days 3 and 5
[9] = tested on: H5N1 (A/Vietnam/1203/04, VN1203); set-up: species or system mouse (balb/c); settings: mouse, in vivo; remark: listed apart in the source
[10] = molecular target: T1, M2 protein of influenza A/Fort …; experiment: cell staining images, 293-HEK cells stably expressing M2
[11] = molecular target: T2, M2 protein on influenza A/Puerto Rico/8/34 (H1N1) virus particles (influenza A virus A/Puerto Rico/8/34 …, UniProt P06821 1-97); experiment: ELISA on purified A/Puerto Rico/8/34 virus
[12] = molecular target: truncated M2 peptide SEQ ID NO 314; experiment: peptide ELISA, 5 µg/mL
[13] = molecular target: truncated M2 peptide SEQ ID NO 299; experiment: peptide ELISA, 5 µg/mL
[14] = molecular target: truncated M2 peptide SEQ ID NO 302; experiment: peptide ELISA, 5 µg/mL
[15] = molecular target: truncated M2 peptide SEQ ID NO 301; experiment: peptide ELISA, 5 µg/mL
[16] = molecular target: truncated M2 peptide SEQ ID NO 308; experiment: peptide ELISA, 5 µg/mL
[17] = molecular target: truncated M2 peptide SEQ ID NO 313; experiment: peptide ELISA, 5 µg/mL
[18] = molecular target: truncated M2 peptide SEQ ID NO 311; experiment: peptide ELISA, 5 µg/mL
[19] = molecular target: truncated M2 peptide SEQ ID NO 310; experiment: peptide ELISA, 5 µg/mL
[20] = molecular target: truncated M2 peptide SEQ ID NO 303; experiment: peptide ELISA, 5 µg/mL
[21] = molecular target: truncated M2 peptide SEQ ID NO 305; experiment: peptide ELISA, 5 µg/mL
[22] = molecular target: truncated M2 peptide SEQ ID NO 298; experiment: peptide ELISA, 5 µg/mL
[23] = molecular target: truncated M2 peptide SEQ ID NO 312; experiment: peptide ELISA, 5 µg/mL
[24] = molecular target: truncated M2 peptide SEQ ID NO 309; experiment: peptide ELISA, 5 µg/mL
[25] = molecular target: truncated M2 peptide SEQ ID NO 316; experiment: peptide ELISA, 5 µg/mL
[26] = molecular target: truncated M2 peptide SEQ ID NO 271; experiment: peptide ELISA, 5 µg/mL
[27] = molecular target: truncated M2 peptide SEQ ID NO 307; experiment: peptide ELISA, 5 µg/mL
[28] = molecular target: truncated M2 peptide SEQ ID NO 304; experiment: peptide ELISA, 5 µg/mL
[29] = molecular target: truncated M2 peptide SEQ ID NO 300; experiment: peptide ELISA, 5 µg/mL
M2 peptide SEQ ID NO 273 = experiment: peptide ELISA, 5 µg/mL
[30] = molecular target: truncated M2 peptide SEQ ID NO 315; experiment: peptide ELISA, 5 µg/mL
[31] = molecular target: truncated M2 peptide SEQ ID NO 306; experiment: peptide ELISA, 5 µg/mL
[32] = molecular target: M2 protein of influenza A/Puerto Rico/8/34 (H1N1) on cells (influenza A virus A/Puerto Rico/8/34 …, UniProt P06821 1-97); experiment: FACS, MDCK cells infected with A/Puerto Rico/8/34
[33] = molecular target: T2, M2 protein on influenza A/Puerto …; experiment: ELISA on A/PR/8 virus, normalised to 8i10 at 10 µg/ml [D00002 FIG. 2B]

Row | Molecule | binding result [10] | EC50 [11] [µg/mL] | ELISA A450 [12] | ELISA A450 [14] | ELISA A450 [15] | ELISA A450 [17] | ELISA A450 [18] | ELISA A450 [19] | ELISA A450 [20] | ELISA A450 [21] | ELISA A450 [23] | ELISA A450 [25] | ELISA A450 [26] | ELISA A450 [28] | ELISA A450 [29] | ELISA A450 [30] | ELISA A450 [31] | EC50 (read off the curve) [32] [ng/mL] | EC50 (read off the curve) [33] [ng/mL] | also measured
1 | CCOC(=O)C1=C[C@@H](OC(CC)CC)[C@H](NC(C)=O)[C@@H](N)C1 [Osel] | – | – | – | – | – | – | – | – | – | – | – | – | – | – | – | – | – | – | – | Brain: viral antigens (H5N1 (VN1203/04) [1]): ++/++ and +/++; Lung: viral antigens (H5N1 (VN1203/04) [1]): +/++ and ++/++; Brain: viral antigens (H5N1 (VN1203/04) [2]): −/−; Lung: viral antigens (H5N1 (VN1203/04) [2]): +/+; Brain: pathological changes (H5N1 (VN1203/04) [3]): −/− and ++/++ and +/++; Liver: pathological changes (H5N1 (VN1203/04) [3]): −/−; Liver: viral antigens (H5N1 (VN1203/04) [3]): −/−; Lung: pathological changes (H5N1 (VN1203/04) [3]): +/+ and +/++ and ++/++
2 | CCOC(=O)C1=C[C@@H](OC(CC)CC)[C@H](NC(C)=O)[C@@H](N)C1 [oseltamivir] | – | – | – | – | – | – | – | – | – | – | – | – | – | – | – | – | – | – | – | survival (in words) [4]: extinction of the population prior to the end of the therapy; survival rate at day 21 (H1N1 (A/NWS/33); 2MLD50): 90%; survival rate at day 21 (H1N1 (A/NWS/33); 4MLD50): 100%; survival rate at day 14 (H5N1 (VN1203/04) [5]): 90% and 50%; protection from death (in words) [6]: completely protected mice; protection from weight loss (in words) [6]: completely protected mice; survival rate at day 15 [6]: 60%; weight remaining (in words) [6]: retained more weight; survival rate at day 21 (H1N1 (A/PR/8/34)): 80%; survival rate at day 14 [7]: 20%; mice surviving until day 21 [8]: about 10%; survival rate at day 14 [9]: 20%
3 | B1 | binds | ~0.1 | 0.1 | 0.13 | 0.11 | 0.13 | 0.11 | 0.11 | 0.12 | 0.14 | 0.1 | 0.1 | 0.12 | 0.14 | 0.09 | 0.1 | 0.14 | ~100 | ~40 | ELISA A450 [13]: 0.09; ELISA A450 [16]: 0.29; ELISA A450 [22]: 0.09; ELISA A450 [24]: 0.12; ELISA A450 [27]: 0.26; ELISA A450 (M2 peptide SEQ ID NO 273): 0.11
4 | B2 | binds | – | – | – | – | – | – | – | – | – | – | – | – | – | – | – | – | – | – | –
5 | B3 | binds | ~0.1 | 0.24 | 0.35 | 0.34 | 0.3 | 0.25 | 0.24 | 0.34 | 0.34 | 0.24 | 0.2 | 0.3 | 0.36 | 0.2 | 0.2 | 0.39 | ~200 | ~60 | –
